Laboratory results published in the supplement of paper PMC10567573.

B1: CCND2 (parent)
chain: YFKCVQKDIQPYMRRMVATWMLEV

Variants of: B1
Assay: protein stability index of a GFP-peptide fusion (GPS, HEK-293T) (PSI 1-6); higher = more stable
Conditions: c terminus: a fixed tail appended
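Further: lentivirally expressed fusions sorted by FACS into six bins by GFP to DsRed ratio, PSI derived from sequencing read proportions per bin multiplied by bin number.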

Protein stability index of substitutions, site by site:
Q10: D 2.77; T 2.71; P 3.81; N 3.3; V 2.5; F 1.99; H 2.84; R 2.02; Y 3.78; L 2.64; I 3.17; M 2.06; K 3.06; A 3.8; W 3.11; S 3.22; E 2.32; G 2.42; C 3.12
Y12: W 2.43; D 3.35; A 3.33; C 2.89; R 4.86; L 3.19; M 5.01; H 2.54; P 1.89; T 2.66; Q 3.19; N 2.38; K 3.07; I 2.54; V 3.11; S 2.83
K3: G 1.86; H 3.13; A 2.64; T 3.31; V 3.12; W 2.44; P 2.33; E 3.31; N 2.9; I 2.78; D 3.48; S 3.75; Y 3.04; L 2.71; Q 2.12; C 2.89; M 2.96
M21: I 2.58; R 1.86; D 2.43; K 3.19; Q 1.76; P 2.24; A 1.67; S 3.49; L 1.76; G 2.52; F 1.96; E 2.72; V 2.55; C 3.87; W 4.25; H 2.08; N 2.54
R14: A 3.47; K 1.44; D 2.16; I 2.63; Y 3.2; W 1.74; P 3.71; T 4.32; V 2.55; L 4.22; S 3.39; C 2.77; E 2.24; G 2.28; N 2.06; Q 1.73
M13: Y 3.66; D 2.8; G 2.58; I 3.3; K 3.64; C 2.43; A 3.23; E 2.88; H 2.92; T 2.96; R 2.42; F 3.07; V 1.66; Q 2.65
F2: Q 3.63; T 2.61; L 2.85; M 1.89; R 2.33; W 2.75; Y 2.68; K 2.95; V 2.15; N 2.66; S 3.5
W20: G 1.95; N 1.24; L 4.58; V 3.41; Y 3.49; I 2.57; R 2.17; K 1.84; P 2.58; C 3.44; A 2.36; S 2; H 2.88; E 3.61; D 1.63; F 2.34; Q 2.61; T 2.18
A18: Y 4.28; N 3.36; T 3.65; K 2.69; R 4.17; P 2.96; L 3.85; D 2.37; F 3.1; H 2.17; E 3.2; W 2.98; C 1.44; Q 3.45
M16: D 2.09; K 2.67; S 2.58; G 3.04; N 1.51; A 3.12; R 2.65; V 2.3; H 2.35; Y 2.41; F 3.28; T 3.51; P 3.25; I 3.33; Q 2.91; E 2.45; L 3.06
K7: I 3.33; D 1.91; M 2.53; W 2.12; N 2.66; P 2.48; Y 2.54; G 2.97; E 4.8; S 3.21; T 3.22; L 2.56; V 3.05; F 1.98; Q 2.1; R 2.69; H 4.29
I9: V 1.06; Q 2.61; K 1.52; E 3.71; D 2.71; R 1.77; H 2.78; Y 3.57; L 3.16; M 3.79; S 3.49; T 3.39; F 2.47; P 3.18; C 2.51; G 3.25
V5: K 2.25; R 4.02; P 3.14; A 2.25; S 1.43; N 2.54; Y 4; M 2.48; L 2.71; W 2.9; F 2.7; D 2.41; I 2.92; G 1.47; T 3.62; C 2.36; H 2.23; E 2.58; Q 2.37
P11: F 3.77; S 2.5; M 3.69; K 2.82; T 2.34; E 2.85; D 2.22; N 2.54; V 2.82; Q 3.25; H 4.06; W 3.21; I 2.9; C 2.36; Y 2.74
L22: H 1.59; G 2.07; D 1.89; E 1.74; N 1.65; K 2.34; C 2.25; I 2.61; F 4.78; A 3.01
C4: I 2.84; K 2.45; R 2.25; Q 1.44; Y 3.12; N 3.42; T 1.74; G 2.21; V 3.69; F 4.64; E 1.28; W 3.23; P 2.44; A 2.47; M 2.81; H 2.37; S 3.14
D8: W 2.03; N 2.16; L 2.05; S 3.28; Y 3.53; P 3.13; K 2.94; H 2.21; G 3.98; C 2.87; T 2.37; I 2.58; E 2.37
T19: R 1.58; H 3.25; K 3; P 1.41; D 1.97; M 1.84; E 1.44; F 2.85; G 2.5; I 2.75; Y 3.88; V 2.61; Q 1.75; S 2.83; W 2.88; A 3.42; N 3.9
V17: S 1.77; D 3.18; W 4.01; H 3.14; K 2.5; G 3.39; I 2.65; P 2.44; C 3.2; F 2.44; A 1.55; T 3.15; Q 2.63; R 3.03; N 2.15; E 2.49; M 2; L 2.28
R15: P 3.69; I 2.75; Y 2.81; E 3.42; G 2.35; V 3.01; W 3.97; D 3.42; K 2.36; S 2.55; L 2.33; A 1.77; C 3.12; H 2.75; N 3.95; F 4.08
Q6: N 1.9; L 2.53; R 2.65; T 2.38; V 1.79; F 2.07; G 2.47; P 2.49; A 1.97; S 2.37; K 3.15; Y 2.64; C 3.44; E 3.62; I 1.91; W 1.64; D 2.65
